Numbering of substitutions follows the chain as printed.
T1: human TL1A extracellular domain with N-terminal HIS and FLAG tag (human, UniProt O95150 72-251)
T1 construct: the whole entry is named
T1 sequence: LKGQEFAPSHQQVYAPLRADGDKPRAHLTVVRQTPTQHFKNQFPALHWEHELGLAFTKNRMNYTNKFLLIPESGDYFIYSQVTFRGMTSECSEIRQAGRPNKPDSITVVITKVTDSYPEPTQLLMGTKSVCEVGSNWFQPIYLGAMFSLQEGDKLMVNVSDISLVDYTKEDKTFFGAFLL

B1: 320-389 (antibody, human IgG1, name in Kabat numbering, V domains shown)
VH: QVQLVQSGAEVKKPGASVKVSCKASSYTFTSYDINWVRQAPGQGLEWMGWLNPNSGNTGYAQKFQGRVTMTADRSTSTAYMELSSLRSEDTAVYYCAREVPETAAFEYWGQGTLVTVSS
VL: QSVLTQPPSVSGAPGQRVTISCTSSSSDIGAGLGVHWYQQLPGTAPKLLIEGYYNRPSGVPDRFSGSKSGTSASLTITGLLPEDEGDYYCQSYDGTLSALFGGGTKLTVLG
notes: human IgG1, lambda
B2: 320-408 (antibody, human IgG1, name in Kabat numbering, V domains shown)
VH: B1 VH with S26G, T28H
VL: B1 VL
notes: human IgG1, lambda
B3: 320-391 (antibody, human IgG1, name in Kabat numbering, V domains shown)
VH: B1 VH with S26D
VL: B1 VL
notes: human IgG1, lambda
B4: 320-399 (antibody, human IgG1, name in Kabat numbering, V domains shown)
VH: B1 VH with S26G, Y27Q
VL: B1 VL
notes: human IgG1, lambda
B5: 320-392 (antibody, human IgG1, name in Kabat numbering, V domains shown)
VH: B1 VH with S26H
VL: B1 VL
notes: human IgG1, lambda
B6: 320-403 (antibody, human IgG1, name in Kabat numbering, V domains shown)
VH: B1 VH with S26G, Y27W
VL: B1 VL
notes: human IgG1, lambda
B7: 320-400 (antibody, human IgG1, name in Kabat numbering, V domains shown)
VH: B1 VH with S26G, Y27D
VL: B1 VL
notes: human IgG1, lambda
B8: 320-412 (antibody, human IgG1, name in Kabat numbering, V domains shown)
VH: B1 VH with S26G, T28Y
VL: B1 VL
notes: human IgG1, lambda
B9: 320-405 (antibody, human IgG1, name in Kabat numbering, V domains shown)
VH: B1 VH with S26G, T28S
VL: B1 VL
notes: human IgG1, lambda
B10: 320-417 (antibody, human IgG1, name in Kabat numbering, V domains shown)
VH: B1 VH with S26G, F29H
VL: B1 VL
notes: human IgG1, lambda
B11: 320-402 (antibody, human IgG1, name in Kabat numbering, V domains shown)
VH: B1 VH with S26G, Y27L
VL: B1 VL
notes: human IgG1, lambda
B12: 320-418 (antibody, human IgG1, name in Kabat numbering, V domains shown)
VH: B1 VH with S26G, F29K
VL: B1 VL
notes: human IgG1, lambda
B13: 320-395 (antibody, human IgG1, name in Kabat numbering, V domains shown)
VH: B1 VH with S26W
VL: B1 VL
notes: human IgG1, lambda
B14: 320-397 (antibody, human IgG1, name in Kabat numbering, V domains shown)
VH: B1 VH with S26G, Y27A
VL: B1 VL
notes: human IgG1, lambda
B15: 320-404 (antibody, human IgG1, name in Kabat numbering, V domains shown)
VH: B1 VH with S26G, T28A
VL: B1 VL
notes: human IgG1, lambda
B16: 320-415 (antibody, human IgG1, name in Kabat numbering, V domains shown)
VH: B1 VH with S26G, F29Q
VL: B1 VL
notes: human IgG1, lambda
B17: 320-416 (antibody, human IgG1, name in Kabat numbering, V domains shown)
VH: B1 VH with S26G, F29D
VL: B1 VL
notes: human IgG1, lambda
B18: 320-393 (antibody, human IgG1, name in Kabat numbering, V domains shown)
VH: B1 VH with S26K
VL: B1 VL
notes: human IgG1, lambda
B19: 320-396 (antibody, human IgG1, name in Kabat numbering, V domains shown)
VH: B1 VH with S26Y
VL: B1 VL
notes: human IgG1, lambda
B20: 320-390 (antibody, human IgG1, name in Kabat numbering, V domains shown)
VH: B1 VH with S26Q
VL: B1 VL
notes: human IgG1, lambda
B21: 320-413 (antibody, human IgG1, name in Kabat numbering, V domains shown)
VH: B1 VH with S26G, F29A
VL: B1 VL
notes: human IgG1, lambda
B22: 320-406 (antibody, human IgG1, name in Kabat numbering, V domains shown)
VH: B1 VH with S26G, T28Q
VL: B1 VL
notes: human IgG1, lambda
B23: 320-394 (antibody, human IgG1, name in Kabat numbering, V domains shown)
VH: B1 VH with S26L
VL: B1 VL
notes: human IgG1, lambda
B24: 320-411 (antibody, human IgG1, name in Kabat numbering, V domains shown)
VH: B1 VH with S26G, T28W
VL: B1 VL
notes: human IgG1, lambda
B25: 320-410 (antibody, human IgG1, name in Kabat numbering, V domains shown)
VH: B1 VH with S26G, T28L
VL: B1 VL
notes: human IgG1, lambda
B26: 320-407 (antibody, human IgG1, name in Kabat numbering, V domains shown)
VH: B1 VH with S26G, T28D
VL: B1 VL
notes: human IgG1, lambda
B27: 320-419 (antibody, human IgG1, name in Kabat numbering, V domains shown)
VH: B1 VH with S26G, F29L
VL: B1 VL
notes: human IgG1, lambda
B28: 320-398 (antibody, human IgG1, name in Kabat numbering, V domains shown)
VH: B1 VH with S26G, Y27S
VL: B1 VL
notes: human IgG1, lambda
B29: 320-414 (antibody, human IgG1, name in Kabat numbering, V domains shown)
VH: B1 VH with S26G, F29S
VL: B1 VL
notes: human IgG1, lambda
B30: 320-409 (antibody, human IgG1, name in Kabat numbering, V domains shown)
VH: B1 VH with S26G, T28K
VL: B1 VL
notes: human IgG1, lambda
B31: 320-401 (antibody, human IgG1, name in Kabat numbering, V domains shown)
VH: B1 VH with S26G, Y27H
VL: B1 VL
notes: human IgG1, lambda

These binders were tested against T1, human TL1A extracellular domain with … (assay: SPR Run 5, Ab from supernatant captured on Protein A, TL1A 5 ug/mL, timepoint 220).
Excerpt: (§1) 1.5. Antibody expression and antigen binding as determined by SPR. Using a CM5 sensor chip (GE Healthcare) Protein A (Pierce) was coupled to the chip surface using an amine coupling kit (GE Healthcare). Protein A was coupled on flow cell 1 and 2 (or alternatively 3 and 4) using a BIACORE® T200. […] The amount of supernatant or purified protein (as well as the concentration) injected during the capture stage varied between runs and is specified in the header of the Tables 3-11. At the end of injection of the supernatant or purified antibody the change in response units was measured. This value was reported as Capture Level in Tables 3-11. […] The response units were measured prior to the end of the dissociation phase. […] The sensorgrams were double referenced (flow cell 2 is subtracted from flow cell 1 and a buffer blank). As there were a large number of antibody variants to screen, these were screened across different runs (Tables 3-11). […] A summary of the conditions used in each run is below:
(§2) 2.1. […] In some experiment the antibodies were purified using Protein A chromatography (See 1.4) and purified antibodies were used in BIACORE® (GE Healthcare) experiments.

With B1 as the binder, how does the “TL1A Binding Level (Late)” value read?
Its value is 11 RU.

B2 was tested. Which “TL1A Binding Level (Late)” value did it give?
Its value is 12 RU.

With B3 as the binder, how does the “TL1A Binding Level (Late)” value read?
Its value is 13 RU.

For B4, which “TL1A Binding Level (Late)” value is on record?
Its value is 10 RU.

How did the “TL1A Binding Level (Late)” value turn out when B5 was run?
The value was 11 RU.

With B6 as the binder, how does the “TL1A Binding Level (Late)” value read?
The value was 10 RU.

B7 was tested. Which “TL1A Binding Level (Late)” value did it give?
The value was 11 RU.

B8 was tested. Which “TL1A Binding Level (Late)” value did it give?
Its value is 9 RU.

How did the “TL1A Binding Level (Late)” value turn out when B9 was run?
Its value is 9 RU.

With B10 as the binder, how does the “TL1A Binding Level (Late)” value read?
Its value is 8 RU.

How did the “TL1A Binding Level (Late)” value turn out when B11 was run?
Its value is 10 RU.

With B12 as the binder, how does the “TL1A Binding Level (Late)” value read?
Its value is 9 RU.

For B13, which “TL1A Binding Level (Late)” value is on record?
The value was 12 RU.

B14 was tested. Which “TL1A Binding Level (Late)” value did it give?
The value was 12 RU.

With B15 as the binder, how does the “TL1A Binding Level (Late)” value read?
The value was 10 RU.

With B16 as the binder, how does the “TL1A Binding Level (Late)” value read?
The value was 4 RU.

How did the “TL1A Binding Level (Late)” value turn out when B17 was run?
The value was 8 RU.

Which “TL1A Binding Level (Late)” value does the source give for B18 here?
The value was 11 RU.

With B19 as the binder, how does the “TL1A Binding Level (Late)” value read?
The value was 11 RU.

Which “TL1A Binding Level (Late)” value does the source give for B20 here?
The value was 11 RU.

How did the “TL1A Binding Level (Late)” value turn out when B21 was run?
The value was 8 RU.

Which “TL1A Binding Level (Late)” value does the source give for B22 here?
Its value is 7 RU.

For B23, which “TL1A Binding Level (Late)” value is on record?
Its value is 12 RU.

B24 was tested. Which “TL1A Binding Level (Late)” value did it give?
Its value is 9 RU.

Which “TL1A Binding Level (Late)” value does the source give for B25 here?
Its value is 10 RU.

For B26, which “TL1A Binding Level (Late)” value is on record?
The value was 11 RU.

Which “TL1A Binding Level (Late)” value does the source give for B27 here?
The value was 9 RU.

For B28, which “TL1A Binding Level (Late)” value is on record?
The value was 11 RU.

For B29, which “TL1A Binding Level (Late)” value is on record?
Its value is 7 RU.

How did the “TL1A Binding Level (Late)” value turn out when B30 was run?
The value was 10 RU.

B31 was tested. Which “TL1A Binding Level (Late)” value did it give?
The value was 10 RU.

What follows are binders tested against T1, human TL1A extracellular domain with … (assay: SPR Run 5, Ab from supernatant captured on Protein A, TL1A 5 ug/mL, timepoint 44).
Excerpt: as §1, §2

Which “TL1A Binding Level (Early)” value does the source give for B1 here?
The value was 12 RU.

How did the “TL1A Binding Level (Early)” value turn out when B2 was run?
The value was 13 RU.

How did the “TL1A Binding Level (Early)” value turn out when B3 was run?
Its value is 14 RU.

B4 was tested. Which “TL1A Binding Level (Early)” value did it give?
The value was 10 RU.

Which “TL1A Binding Level (Early)” value does the source give for B5 here?
The value was 12 RU.

Which “TL1A Binding Level (Early)” value does the source give for B6 here?
The value was 11 RU.

Which “TL1A Binding Level (Early)” value does the source give for B7 here?
The value was 11 RU.

How did the “TL1A Binding Level (Early)” value turn out when B8 was run?
Its value is 10 RU.

With B9 as the binder, how does the “TL1A Binding Level (Early)” value read?
Its value is 10 RU.

For B10, which “TL1A Binding Level (Early)” value is on record?
Its value is 9 RU.

With B11 as the binder, how does the “TL1A Binding Level (Early)” value read?
The value was 11 RU.

For B12, which “TL1A Binding Level (Early)” value is on record?
Its value is 10 RU.

For B13, which “TL1A Binding Level (Early)” value is on record?
The value was 13 RU.

B14 was tested. Which “TL1A Binding Level (Early)” value did it give?
Its value is 12 RU.

How did the “TL1A Binding Level (Early)” value turn out when B15 was run?
The value was 11 RU.

With B16 as the binder, how does the “TL1A Binding Level (Early)” value read?
The value was 5 RU.

For B17, which “TL1A Binding Level (Early)” value is on record?
The value was 9 RU.

For B18, which “TL1A Binding Level (Early)” value is on record?
Its value is 12 RU.

Which “TL1A Binding Level (Early)” value does the source give for B19 here?
Its value is 12 RU.

B20 was tested. Which “TL1A Binding Level (Early)” value did it give?
Its value is 12 RU.

Which “TL1A Binding Level (Early)” value does the source give for B21 here?
Its value is 9 RU.

With B22 as the binder, how does the “TL1A Binding Level (Early)” value read?
Its value is 8 RU.

With B23 as the binder, how does the “TL1A Binding Level (Early)” value read?
Its value is 13 RU.

B24 was tested. Which “TL1A Binding Level (Early)” value did it give?
The value was 10 RU.

B25 was tested. Which “TL1A Binding Level (Early)” value did it give?
Its value is 11 RU.

B26 was tested. Which “TL1A Binding Level (Early)” value did it give?
Its value is 12 RU.

With B27 as the binder, how does the “TL1A Binding Level (Early)” value read?
Its value is 11 RU.

For B28, which “TL1A Binding Level (Early)” value is on record?
The value was 12 RU.

For B29, which “TL1A Binding Level (Early)” value is on record?
The value was 7 RU.

With B30 as the binder, how does the “TL1A Binding Level (Early)” value read?
The value was 10 RU.

For B31, which “TL1A Binding Level (Early)” value is on record?
The value was 11 RU.
